Experimental data reported in PMC12402098, “YTHDF3 recognizes DNA N6-methyladenine and recruits ALKBH1 for 6mA removal from genomic DNA” (The EMBO Journal, 2025).

Key:
[1] = target: T1, YTHDF3 wild type (UniProt Q7Z739 1-585); assay: EMSA; SPR: 1x HBS-EP+, biotin-DNA on SA chip (~500 RU), 30 ul/min; EMSA: LightShift kit, 30 C 20 min, then 2% glutaraldehyde on ice 15 min, 5% native gel; pull-down:; settings: protein: recombinant, tags: His
T1 sequence: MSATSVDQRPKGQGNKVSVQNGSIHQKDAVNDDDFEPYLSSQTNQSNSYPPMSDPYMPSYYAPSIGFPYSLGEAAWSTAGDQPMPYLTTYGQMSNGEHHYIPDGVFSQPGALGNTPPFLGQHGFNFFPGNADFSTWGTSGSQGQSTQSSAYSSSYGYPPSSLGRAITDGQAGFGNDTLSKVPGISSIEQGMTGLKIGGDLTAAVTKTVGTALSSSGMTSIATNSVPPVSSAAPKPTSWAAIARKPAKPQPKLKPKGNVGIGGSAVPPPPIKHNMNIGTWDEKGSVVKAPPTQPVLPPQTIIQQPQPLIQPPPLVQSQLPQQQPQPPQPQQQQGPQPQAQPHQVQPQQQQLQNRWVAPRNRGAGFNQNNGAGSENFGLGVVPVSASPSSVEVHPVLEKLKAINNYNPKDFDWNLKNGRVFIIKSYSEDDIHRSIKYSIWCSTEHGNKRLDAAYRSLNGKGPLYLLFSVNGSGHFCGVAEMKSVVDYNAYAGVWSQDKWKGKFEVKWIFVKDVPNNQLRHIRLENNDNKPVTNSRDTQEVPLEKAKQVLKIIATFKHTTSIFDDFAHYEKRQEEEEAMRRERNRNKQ

[2] = target: T2, YTHDF3-His (UniProt Q7Z739 1-585); assay: native gel or EMSA; recombinant ALKBH1 and increasing recombinant YTHDF3 with biotin-labeled 6mA-dsDNA oligos, 30 °C 20 min, 2% glutaraldehyde on ice 15 min, 5% nondenaturing gel; settings: both partners purified
T2 construct: YTHDF3 inserted into pET 26b vector; pET26b would give a C-terminal His tag (surmise); also called recombinant YTHDF3; wild-type YTHDF3; source: E. coli BL21 (DE3), purified (His-tag protein purification kit); also coexpressed with ALKBH1 in E. coli, in lysate
T2 sequence (looked up): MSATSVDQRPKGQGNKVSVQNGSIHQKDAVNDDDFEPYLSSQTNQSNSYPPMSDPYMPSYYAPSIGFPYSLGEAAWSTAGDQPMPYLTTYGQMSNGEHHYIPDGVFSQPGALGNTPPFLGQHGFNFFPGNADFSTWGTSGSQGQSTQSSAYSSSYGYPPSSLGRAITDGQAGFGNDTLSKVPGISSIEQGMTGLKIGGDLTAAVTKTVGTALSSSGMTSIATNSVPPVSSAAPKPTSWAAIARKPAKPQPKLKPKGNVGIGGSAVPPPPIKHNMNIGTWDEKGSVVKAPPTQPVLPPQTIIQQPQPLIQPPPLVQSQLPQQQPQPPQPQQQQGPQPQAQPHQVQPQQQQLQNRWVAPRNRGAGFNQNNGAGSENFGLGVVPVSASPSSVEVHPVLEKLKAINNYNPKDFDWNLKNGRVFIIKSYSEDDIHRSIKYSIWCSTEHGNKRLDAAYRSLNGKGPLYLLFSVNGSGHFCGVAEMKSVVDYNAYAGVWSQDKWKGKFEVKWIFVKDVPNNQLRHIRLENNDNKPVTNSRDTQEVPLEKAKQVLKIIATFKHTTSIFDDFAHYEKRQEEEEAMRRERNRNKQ

[3] = target: T3, YTHDF3-His MT6mA (W438R/W492R) (UniProt Q7Z739 1-585, W438R | W492R); assay: pull-down; GST pull-down: recombinant YTHDF3-His proteins incubated with recombinant ALKBH1-GST protein beads at 4 °C for 1 h, washed three times, eluted with reduced L-glutathione, western blot; settings: both partners purified
T3 construct: YTHDF3 with W438R/W492R in the YTH domain, in pET 26b vector; also called YTHDF3-MT6mA-His; YTHDF3 W438R/W492R mutant; source: E. coli BL21 (DE3), purified (His-tag protein purification kit)
T3 sequence (looked up): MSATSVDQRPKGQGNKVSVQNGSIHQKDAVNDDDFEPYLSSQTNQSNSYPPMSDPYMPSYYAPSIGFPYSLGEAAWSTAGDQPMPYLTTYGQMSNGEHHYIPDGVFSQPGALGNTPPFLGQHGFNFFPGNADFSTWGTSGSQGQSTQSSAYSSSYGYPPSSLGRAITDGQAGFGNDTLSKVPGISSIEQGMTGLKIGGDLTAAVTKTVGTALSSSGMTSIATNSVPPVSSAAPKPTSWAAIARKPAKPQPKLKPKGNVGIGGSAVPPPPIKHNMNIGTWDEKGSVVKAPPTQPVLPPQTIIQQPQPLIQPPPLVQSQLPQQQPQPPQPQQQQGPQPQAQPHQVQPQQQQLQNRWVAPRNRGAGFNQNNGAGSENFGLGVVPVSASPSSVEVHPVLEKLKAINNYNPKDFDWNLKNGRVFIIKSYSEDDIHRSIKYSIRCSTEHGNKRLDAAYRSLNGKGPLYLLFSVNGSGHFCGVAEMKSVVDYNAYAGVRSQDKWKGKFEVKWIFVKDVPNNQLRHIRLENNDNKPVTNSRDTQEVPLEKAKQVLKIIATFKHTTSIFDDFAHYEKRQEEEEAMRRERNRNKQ

[4] = target: T1, YTHDF3 wild type; assay: EMSA, pull-down; SPR: 1x HBS-EP+, biotin-DNA on SA chip (~500 RU), 30 ul/min; EMSA: LightShift kit, 30 C 20 min, then 2% glutaraldehyde on ice 15 min, 5% native gel; pull-down:; settings: protein: recombinant, tags: His
[5] = target: T4, ALKBH1;YTHDF3 wild type (Homo sapiens?;Homo sapiens?, UniProt Q13686;Q7Z739 1-389;1-585, |); assay: pull-down; YTHDF3 increases ALKBH1 binding; SPR: 1x HBS-EP+, biotin-DNA on SA chip (~500 RU), 30 ul/min; EMSA: LightShift kit, 30 C 20 min, then 2% glutaraldehyde on ice 15 min, 5% native gel; pull-down:; settings: protein: recombinant;recombinant
T4 sequence 1: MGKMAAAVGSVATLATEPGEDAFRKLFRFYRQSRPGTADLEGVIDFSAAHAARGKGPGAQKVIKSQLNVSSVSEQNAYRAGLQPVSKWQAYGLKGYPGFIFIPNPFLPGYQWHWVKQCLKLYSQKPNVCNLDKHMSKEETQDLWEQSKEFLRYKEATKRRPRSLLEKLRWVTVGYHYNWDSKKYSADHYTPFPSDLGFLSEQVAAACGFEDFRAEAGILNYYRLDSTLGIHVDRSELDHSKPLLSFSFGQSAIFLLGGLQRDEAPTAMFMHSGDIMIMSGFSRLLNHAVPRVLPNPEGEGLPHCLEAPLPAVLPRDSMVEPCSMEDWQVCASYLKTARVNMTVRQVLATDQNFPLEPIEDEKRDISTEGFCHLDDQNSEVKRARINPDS
T4 sequence 2: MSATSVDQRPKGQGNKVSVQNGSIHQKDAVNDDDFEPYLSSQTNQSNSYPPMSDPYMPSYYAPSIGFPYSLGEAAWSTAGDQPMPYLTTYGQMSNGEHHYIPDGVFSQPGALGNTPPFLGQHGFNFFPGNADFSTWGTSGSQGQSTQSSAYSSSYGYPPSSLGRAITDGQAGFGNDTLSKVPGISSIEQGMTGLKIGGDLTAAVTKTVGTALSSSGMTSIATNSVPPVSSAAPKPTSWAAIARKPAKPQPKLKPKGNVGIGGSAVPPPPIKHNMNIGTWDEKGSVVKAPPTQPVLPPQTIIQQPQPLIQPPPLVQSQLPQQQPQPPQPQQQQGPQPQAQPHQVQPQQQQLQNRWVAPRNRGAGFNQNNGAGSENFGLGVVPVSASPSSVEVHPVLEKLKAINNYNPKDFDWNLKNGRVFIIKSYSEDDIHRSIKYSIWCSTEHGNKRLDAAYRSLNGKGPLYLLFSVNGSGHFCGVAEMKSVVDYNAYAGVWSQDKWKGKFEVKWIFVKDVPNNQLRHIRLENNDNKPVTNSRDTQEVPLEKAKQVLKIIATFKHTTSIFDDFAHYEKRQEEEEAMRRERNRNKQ

[6] = label: 3' biotin strand 1, duplex with bulge of unpaired nt in strand 1 around 6mA
[7] = label: 3' biotin strand 1, duplex with internal mismatch bubble around 6mA

CCCGGUUCGAUUCCCGG (ssRNA, N1-methyladenosine at A10) [tRNA-m1A-oligo]
binding result ([1]; label: 3' biotin): no binding

CGUCUCGGACUCGGACUGCU (ssRNA, N6-methyladenosine at A9) [ss-m6A-oligo]
binding result ([1]; label: 5' biotin): binds

B1: ALKBH1-GST (enzyme, UniProt Q13686 1-389, looked up)
chain: MGKMAAAVGSVATLATEPGEDAFRKLFRFYRQSRPGTADLEGVIDFSAAHAARGKGPGAQKVIKSQLNVSSVSEQNAYRAGLQPVSKWQAYGLKGYPGFIFIPNPFLPGYQWHWVKQCLKLYSQKPNVCNLDKHMSKEETQDLWEQSKEFLRYKEATKRRPRSLLEKLRWVTVGYHYNWDSKKYSADHYTPFPSDLGFLSEQVAAACGFEDFRAEAGILNYYRLDSTLGIHVDRSELDHSKPLLSFSFGQSAIFLLGGLQRDEAPTAMFMHSGDIMIMSGFSRLLNHAVPRVLPNPEGEGLPHCLEAPLPAVLPRDSMVEPCSMEDWQVCASYLKTARVNMTVRQVLATDQNFPLEPIEDEKRDISTEGFCHLDDQNSEVKRARINPDS
notes: ALKBH1 inserted into pGEX vector; it would add GST at the N-terminus (surmise). 'Recombinant ALKBH1' of EMSA, DNA pull-down and demethylase assays may be this protein or ALKBH1-His; also called recombinant ALKBH1; A1; source: E. coli BL21 (DE3), purified (glutathione Sepharose; on beads or eluted with reduced L-glutathione)
binding result [2]: binds | binding result [3]: binds

B2: Bulge-6mA (mixed)
DNA 1: AACTTCGTGCAGGCATGGGATCTTGTCTACT
DNA 2: AGTAGACACATGCCTGCACGAAGTT
modifications: N6-methyl-dA at A20 of strand 1
binding result [4, 6]: binds | binding result [5, 6]: binds

B3: Bubble-6mA (mixed)
DNA 1: AACTTCGTGCAGGCATGGGATCTTGTCTACT
DNA 2: AGTAGACAGTCGATCATGCCTGCACGAAGTT
modifications: N6-methyl-dA at A20 of strand 1
binding result [4, 7]: binds | binding result [5, 7]: binds

AACTTCGTGCAGGCATGGGATCTTGTCTACT (ssDNA, N6-methyl-dA at A20) [ss-6mA]
binding result ([4]; label: 3' biotin): binds | binding result ([5]; label: 3' biotin): binds
